In the DeepSol protein solubility set:

Experiment: soluble on expression in E. coli; label from the status in PepcDB or PDB records

| Sequence | soluble on expression in E. coli |
| --- | --- |
| GMEQLQKRKIYDTTASNASTGILNGKSSNVLNWDDVRFSWAYPLYKNMLANFWTPFEINMSHDAKQFPTLTETEQEAFKKIIGLLAFLDSVQTDYSMRAAEYLTDSSLAALMSVLSFQEVVHNQSYSYVLSSLVPKATQDEIFEYWKHDDVLKERNEFIIDGYEKFVDNPTPKTFLESIVYDVILEGLNFYSGFAFFYNLARNQKMVSTSTMINYINRDEQLHVYLFTNIFKELLVEFPELNTEETKTFVKTTLMKAADLEKDWFRYIIGDKIPGINPEDMETYISFIANKRAVQLGMEKPYPEIKHNPMKWIRAYEDVNSGKSDFFEQKSRQYAKVSADNGFDEL | soluble |
| GMKGENMMVKLIALYEQPEDKQAFDEHYFNTHAPLTRKIPGLRDMKVTRIVGSPMGESKFYLMCEMYYDDHESLQQAMRTDEGKASGKDAMKFAGKLLTLMIGEEMDE | soluble |
| GMKSSQPFIYEAHAARVVFGAGSSSQVAAEVERLGAKRALVLCTPNQQAEAERIADLLGPLSAGVYAGAVMHVPIESARDATARAREAGADCAVAVGGGSTTGLGKAIALETGMPIVAIPTTYAGSEVTPVYGLTEAGTKRTGRDPRVLPRTVIYDPALTVGLPRGLSVTSALNAIAHAAEGLYARDANPVMSLMAEEGIRALAAGIPAVFNDPADLDARSQCLYGAWLCGTVLGGVGMALHHKLCHTLGGSFNLPHAETHTIVLPHALAYNAAAVPEAMARIRRATGAGEQSAAATLFDLAQRHGAPVALRDIGMREEDLDRAADIALASPYWNPRPIEREPIRALLQAAYEGVRPD | soluble |
| GMKTLCTHSLPKEKMPYLLRSGEGERYLFGRQVATVMANGRSTGDLFEIVLLSGGKGDAFPLHVHKDTHEGILVLDGKLELTLDGERYLLISGDYANIPAGTPHSYRMQSHRTRLVSYTMKGNVAHLYSVIGNPYDHAEHPPYASEEVSNERFAEAAAVADIVFLDEAKPACSAKLAELTELPDGAVPYVLESGEGDRLLTGDQLHRIVAAQKNTDGQFIVVSSEGPKGDRIVDHYHEYHTETFYCLEGQMTMWTDGQEIQLNPGDFLHVPANTVHSYRLDSHYTKMVGVLVPGLFEPFFRTLGDPYEGHIFPCEPQALRFDRILQNIEALDLKVMKP | soluble |
| GMKVTNYQGATIDPYSKGLGMVPGTSIQLTDAARLEWNLLNEDVSLPAAVLYADRVEHNLKWMQAFVAEYGVKLAPHGKTTMAPQLFRRQLETGAWGITLATAHQVRAAYHGGVSRVLMANQLVGRRNMMMVAELLSDPEFEFFCLVDSVEGVEQLGEFFKSVNKQLQVLLELGVPGGRTGVRDAAQRNAVLEAITRYPDTLKLAGVELYEGVLKEEHEVREFLQSAVAVTRELVEQERFARAPAVLSGAGSAWYDVVAEEFVKASETGKVEVVLRPGCYLTHDVGIYRKAQTDIFARNPVAKKMGEGLLPALQLWAYVQSIPEPDRAIIGLGKRDSAFDAGMPEPARHYRPGNEAPRDIAASEGWEIFGLMDQHAYLRIPAGADLKVGDMIAFDISHPCLTFDKWRQVLVVDPAYRVTEVIETFF | soluble |
| GMLTDMQRDSASSSTVTTEQIVYGALPLTTINEPECRAIAITSINGSATLSGVSGPMGDQTDADLLIQLRGWADAIVVGAETARKENYGPVVLPHGIKNQRQKLGRCGLPKLTLLSKSLYFDFSSELFSPDLPSELSPLVITQQPANNSEQWDQRLQKLIDVGVEVIVAPTSTNPLKIAFDALHARRLKKISIEGGPSVYRQALSLGIVDRLHLTIAPNIICPVESPLFGKISDDSFTTRLVLEMLSSSPNGLIFSRYKVIRDTLGNPTQ | soluble |
| GMQTKVINFNDKFSLFNQHWSPRVIAEMNDYQFKLVKVEGEFVWHEHADTDEVFIVMEGTLQIAFRDQNITLQAGEMYVIPKGVEHKPMAKEECKIMIIEPR | soluble |
| GMRLPLNQRVAILLHEGTTGTIGKTGLALLRYSEAPIVAVIDRNCAGQSLREITGIYRYVPIVKSVEAALEYKPQVLVIGIAPKGGGIPDDYWIELKTALQAGMSLVNGLHTPLANIPDLNALLQPGQLIWDVRKEPANLDVASGAARTLPCRRVLTVGTDMAIGKMSTSLELHWAAKLRGWRSKFLATGQTGVMLEGDGVALDAVRVDFAAGAVEQMVMRYGKNYDILHIEGQGSLLHPGSTATLPLIRGSQPTQLVLVHRAGQTHNGNNPHVPIPPLPEVIRLYETVASGGGAFGTVPVVGIALNTAHLDEYAAKEAIAHTIAETGLPCTDVVRFGADVLLDAVMQN | soluble |
| GMSFENYFPLWNDLNTAQKKLISDNLITQHVKKGTIIHNGNMDCTGLLLVKSGQLRTYILSDEGREITLYRLFDMDMCLLSASCIMRSIQFEVTIEAEKDTDLWIIPAEIYKGIMKDSAPVANYTNELMATRFSDVMWLIEQIMWKSLDKRVASFLLEETSIEGTNELKITHETIANHLGSHREVITRMLRYFQVEGLVKLSRGKITILDSKRLETLQRS | soluble |
| GMSNLETAKAMIAAYNAQDVDTYVSYMTDDACEANYRGDVVREGKEGTRSGLAAAFARWPQNHAEIKDAQQVGTYVLMREHVTRGPATDGSPLVEPFDVVAVYSFEGDKCSRVEFIR | soluble |
| GMSTPTPDTDVEQVGLANTAFYEAMERGDFETLSSLWLTPADLGVDEEYHDPADAGVVSCVHPGWPVLSGRGEVLRSYALIMANTEYIQFFLTDVHVSVTGDTALVTCTENILSGGPPPDDSDELGPLVGQLVVATNVFRRTPDGWKLWSHHASPVLAETGAEEGDESPD | soluble |
| GMTKKTGFFKRLKALTLPQKQLFATALCQRMLPNYQLFSEVCEFGDPAVLSTALELLWQSLYDPKLKFNIDVHLQRLEDNTPEPADFEAYGVYPAMDAVVAISTLLGAIQGKIEEDIVNISKLSSSTVANYIEAISDVDLVDEALDDFVFAHEVMEEEKELQNSLLEIIEENPKITAELVKGLRKDIIETGVSNIGISVA | soluble |
| GMTYQALMFDIDGTLTNSQPAYTTVMREVLATYGKPFSPAQAQKTFPMAAEQAMTELGIAASEFDHFQAQYEDVMASHYDQIELYPGITSLFEQLPSELRLGIVTSQRRNELESGMRSYPFMMRMAVTISADDTPKRKPDPLPLLTALEKVNVAPQNALFIGDSVSDEQTAQAANVDFGLAVWGMDPNADHQKVAHRFQKPLDILELFK | soluble |
| GMVSRSPFESFQWKSDIFNCESTDIDNFYLLLEQEMTRLGMVEKNLGEVGKYKVSLYQSPAAKSGLPSLLISAGFHGEESAGPWGLLHFLSEASADLFERVNLSLLPLVNPTGFSRGHRFNKYGENPNRGFVFENGKPKANEHTSVEGKLLLDHAQLLIAACRDGILTCHEDVLSREAYVYSFEPSQVPGRFSLDLRDTLGGYFPIAVDGEIDACPVKDGLIFNHFDTSFEACLVRSGARVGACTETPALQNFDQRVLANSAAMTHFLALCAPLCD | soluble |
| GPGMSSLSNSLPLMEDVQGIRKAQKADGTATVMAIGTAHPPHIFPQDTYADVYFRATNSEHKVELKKKFDHICKKTMIGKRYFNYDEEFLKKYPNITSYDEPSLNDRQDICVPGVPALGTEAAVKAIEEWGRPKSEITHLVFCTSCGVDMPSADFQCAKLLGLHANVNKYCIYMQGCYAGGTVMRYAKDLAENNRGARVLVVCAELTIMGLRAPNETHLDNAIGISLFGDGAAALIIGSDPIIGVEKPMFEIVCTKQTVIPNTEDVIHLHLRETGMMFYLSKGSPMTISNNVEACLIDVFKSVGITPPEDWNSLFWIPHPGGRAILDQVEAKLKLRPEKFRAARTVLWDYGNMVSASVGYILDEMRRKSAAKGLETYGEGLEWGVLLGFGPGITVETILLHSLPLM | soluble |
| GPGPSRPSASWQNSVSERPPYSYMAMIQFAINSTERKRMTLKDIYTWIEDHFPYFKHIAKPGWKNSIRHNLSLHDMFVRETSANGKVSFWTIHPSANRYLTLDQVFKPLDPGSPQLPEHLESQQKRPNPELRRNMTIKTELP | soluble |
| GPGSGSDERVVALKDITLAESKHSNAATTKQGASTTNCLQRSNLPPPFAPVRRGEFVMIRGPSGGGKTTLLNIIGSIDSCTEGNIELNGRIIDKDTKESVLADIRLKNIGFVFQTFNLIATMTAAENVELPMTLLGTMSTKAMRLRSRQLLTLVGLRNRINHLPSELSGGEQQRVTIARSLANNPSILLLDEPTGDLDTANTIEVMDLLMRINRRTKTTCIMVTHNPDIECYADRILYVSDGRFAKEVFNALPMCLDLENYTEYLAAKERAITGFAGVGDVEDDSEPRATAAMAECIG | not soluble |
